One molecule from publication PMC4764579 (2016) can be followed below.

The target of this assay is TRPV1 (Rattus norvegicus, UniProt O35433). The experiment in a line: electrophysiology, Hill fit.
TRPV1, sequence (O35433 whole entry): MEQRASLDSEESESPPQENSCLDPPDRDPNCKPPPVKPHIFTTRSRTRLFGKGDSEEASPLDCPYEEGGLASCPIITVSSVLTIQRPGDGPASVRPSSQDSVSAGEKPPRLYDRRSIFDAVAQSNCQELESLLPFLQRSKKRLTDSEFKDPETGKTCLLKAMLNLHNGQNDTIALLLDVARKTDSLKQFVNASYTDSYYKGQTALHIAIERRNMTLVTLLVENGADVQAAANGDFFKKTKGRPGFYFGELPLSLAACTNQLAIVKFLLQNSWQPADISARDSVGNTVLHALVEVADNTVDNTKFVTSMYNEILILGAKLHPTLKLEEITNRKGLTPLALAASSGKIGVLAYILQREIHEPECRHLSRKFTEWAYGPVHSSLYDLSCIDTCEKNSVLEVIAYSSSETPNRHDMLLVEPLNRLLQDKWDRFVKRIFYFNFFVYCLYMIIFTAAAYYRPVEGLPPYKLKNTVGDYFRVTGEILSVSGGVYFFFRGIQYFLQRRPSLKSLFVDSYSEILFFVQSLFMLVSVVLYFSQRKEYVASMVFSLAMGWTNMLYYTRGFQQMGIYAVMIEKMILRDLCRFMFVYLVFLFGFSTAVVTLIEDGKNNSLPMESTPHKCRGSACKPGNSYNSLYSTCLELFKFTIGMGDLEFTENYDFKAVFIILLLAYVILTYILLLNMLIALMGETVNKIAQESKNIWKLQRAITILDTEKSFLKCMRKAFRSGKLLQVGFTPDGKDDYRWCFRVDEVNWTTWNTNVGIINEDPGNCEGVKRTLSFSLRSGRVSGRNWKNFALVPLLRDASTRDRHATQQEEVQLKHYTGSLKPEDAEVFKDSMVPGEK

B1: double-knot toxin (DkTx) K2 knot (peptide)
chain: TNCAKEGEVCGWGSKCCHGLDCPLAFIPYC
A word on the Kd: it is the equilibrium constant for the complex coming apart. Lower therefore signals a tighter complex. Regarding B1, the Kd is 8.5 µM.
